Data reported in US20030186334A1, “KTS-disintegrins” (Temple University - Of the Commonwealth System of Higher …, priority 2001, published 2003).

Key:
[1] = test system: human melanoma cells (MV3); experiment: apoptosis by caspase-3 levels in melanoma MV3 cells; format: cell-based
Procedure: (§1) The mechanisms of the cancer-suppressing effect observed for obtustatin were investigated as follows. Dermal microvascular endothelial cells (EC) and human melanoma cells (MV3) were cultured and exposed to TNF-α, vincristine and obtustatin. (TNF-α and vincristine are compounds which induce cell death by apoptosis in both normal and cancerous cells.) Control cells received only vehicle. The extent of apoptosis was measured by determining caspase-3 levels.

[2] = test system: dermal microvascular endothelial cells (EC); experiment: apoptosis by caspase-3 levels in dermal microvascular endothelial cells; format: cell-based
Procedure: as §1

[3] = biological target: T1, α1β1 integrin (Homo sapiens, UniProt P05556+P56199); experiment: adhesion of α1K562 cells to immobilized collagen IV; format: cell-based; details: for IC50: α1K562 cells, α1β1, collagen IV
T1 construct: expressed in transfected cells; host or cells: α1K562 cells
Procedure: Collagen IV (0.2 μg/well) in 0.02 M acetic acid was immobilized by incubation overnight at 4° C. on a 96-well plate. Plates were then blocked with 1% (w/v) BSA (bovine serum albumin) in Hank's Balanced Salt Solution (HBSS) containing 3 mM Mg^2+ at room temperature for 1-2 hours to prevent cells from non-specifically binding to the plates. α1K562 cells were labeled by incubation with 12.5 μM 5-chloromethylfluorescein diacetete (CMFDA) in HBSS for 15 minutes at 37° C. CMFDA labeled α1K562 cells were then pelleted, washed and resuspended in HBSS buffer containing 3 mM Mg^2+ and 1% BSA. […] The plates were washed three times with HBSS containing 3 mM Mg^2+ and 1% (w/v) BSA to remove unbound cells. Bound cells were lysed using 0.5% (v/v) Triton X-100 in H2O. Fluorescent CMFDA released by lysis of adherent cells in a given well was read using a Cytofluor 2350 fluorescence plate reader.
(§2) Adhesive ligands for the selected integrins consisted of collagen IV (0.2 μg/well), collagen I, fibronectin, or vascular cell adhesion molecule-1 (VCAM-1). Adhesive ligands in 0.02 M acetic acid were immobilized overnight at 4° C. on a 96-well plate. Plates were then blocked with 1% (w/v) BSA (bovine serum albumin) in Hank's Balanced Salt Solution (HBSS) containing 3 mM Mg^2+ at room temperature for 1-2 hours to prevent cells from non-specifically binding to the plates. α1K562, α2K562, K562, A5, and Jurkat cells expressing the α1β1, α2β1, α5β1, αIIbβ3, and α4β1 integrins respectively were labeled by incubation with 12.5 μM 5-chloromethylfluorescein diacetate (CMFDA) in HBSS for 15 minutes at 37° C. CMFDA labeled cells were then pelleted, washed and resuspended in HBSS buffer containing 3 mM Mg^2+ and 1% (w/v) BSA. […] Plates were then incubated at 37° C. for 30 minutes as indicated in Table 5 and washed three times with HBSS containing 3 mM Mg^2+ and 1% (w/v) BSA to remove unbound cells. Bound cells were lysed using 0.5% (v/v) Triton X-100 in H2O. Fluorescent CMFDA released by lysis of adherent cells in a given well was read using a Cytofluor 2350 fluorescence plate reader.
(§3) The effect of obtustatin, viperisrastatin, echistatin, and eristostatin on the binding of selected integrins to their adhesive ligands was evaluated using the cell adhesion assay described in Example 6. The integrin-expressing cells, integrins and corresponding adhesive ligands, and the results of the cell adhesion assay are shown in Table 6.

[4] = biological target: T1, α1β1 integrin; experiment: adhesion of HS.939T cells to collagen IV; format: cell-based; details: α1β1, Coll IV
[5] = biological target: T2, α6β1 integrin (Homo sapiens, UniProt P05556+P23229); experiment: adhesion of α6K562 cells to laminin; format: cell-based; details: α6β1, LM
T2 construct: expressed in transfected cells; host or cells: α6K562 cells

[6] = biological target: T1, α1β1 integrin; experiment: adhesion of α1K562 cells to collagen I; format: cell-based; details: α1β1, Coll I
Procedure: as §2, §3

[7] = biological target: T3, α1β1 integrin (Mus musculus, UniProt P09055+Q3V3R4); experiment: adhesion of B16F10 cells to collagen IV; format: cell-based; details: for IC50: α1β1, Coll IV
T3 construct: endogenous in cells; host or cells: B16F10 cells

[8] = biological target: α2β1 integrin (Homo sapiens, UniProt P05556+P17301); experiment: adhesion of α2K562 cells to collagen I; format: cell-based; parameters: expressed in transfected cells; host or cells: α2K562 cells
Procedure: as §2, §3

[9] = biological target: T4, α9β1 integrin (Homo sapiens, UniProt P05556+Q13797); experiment: adhesion of SW480α9 cells to VCAM-1; format: cell-based; details: α9β1, VCAM-1
T4 construct: expressed in transfected cells; host or cells: SW480α9 cells

[10] = biological target: T5, α4β1 integrin (Homo sapiens, UniProt P05556+P13612); experiment: adhesion of Jurkat cells to VCAM-1; format: cell-based; details: α4β1, VCAM-1
T5 construct: endogenous in cells; host or cells: Jurkat cells
Procedure: as §2, §3

[11] = test system: angiogenesis; experiment: Japanese quail chorioallantoic membrane (CAM) angiogenesis assay; format: in vivo; details: 20 μg and 50 μg, in words
Procedure: The disintegrins obtustatin and eristostatin were evaluated for their effect on angiogenesis via a Japanese quail chorioallantoic membrane (CAM) assay, as is known in the art (see, for example, Parsons-Wingerter P et al., “A Novel Assay of Angiogenesis in the Quail Chorioallantoic Membrane: Stimulation by bFGF and Inhibition by Angiostatin According to Fractal Dimension and Grid Intersection.” Microvascular Research 55(3):201-214, 1998, the disclosure of which is herein incorporated by reference).

[12] = biological target: T6, α5β1 integrin (Homo sapiens, UniProt P05556+P08648); experiment: adhesion of K562 cells to fibronectin; format: cell-based
T6 construct: endogenous in cells; host or cells: K562 cells
Procedure: as §2, §3

[13] = biological target: T7, αvβ3 integrin (Homo sapiens, UniProt P05106+P06756); experiment: adhesion of JY cells to vitronectin; format: cell-based; details: αvβ3, VN
T7 construct: endogenous in cells; host or cells: JY cells

[14] = biological target: T8, αIIbβ3 integrin (Homo sapiens, UniProt P05106+P08514); experiment: adhesion of A5 cells to fibrinogen; format: cell-based
T8 construct: expressed in transfected cells; host or cells: A5 cells
Procedure: as §2, §3

[15] = test system: Lewis lung carcinoma; experiment: Lewis lung carcinoma growth in syngeneic mouse model; format: in vivo, C57BL/6 mice; details: 5 mg/kg intraperitoneally once daily for eight days
Procedure: Lewis lung carcinoma cells (1×10^6) were injected under the skin of the C57BL/6 mice (Tacoma Inc., Germantown, N.Y.), and tumors were allowed to grow for one week. The average tumor size after one week of growth was approximately 0.08 cm^3. The one-week time-point was called “day 0.” Two treatment groups of four mice each were injected intraperitoneally once daily with either 5 mg/kg obtustatin or 5 mg/kg echistatin beginning on day 0 for a total of eight days. A control group of four mice received only PBS. Tumor volume was measured daily using the formula length×width^2×0.52.

T7 sequence (P06756 31-889 limits assumed): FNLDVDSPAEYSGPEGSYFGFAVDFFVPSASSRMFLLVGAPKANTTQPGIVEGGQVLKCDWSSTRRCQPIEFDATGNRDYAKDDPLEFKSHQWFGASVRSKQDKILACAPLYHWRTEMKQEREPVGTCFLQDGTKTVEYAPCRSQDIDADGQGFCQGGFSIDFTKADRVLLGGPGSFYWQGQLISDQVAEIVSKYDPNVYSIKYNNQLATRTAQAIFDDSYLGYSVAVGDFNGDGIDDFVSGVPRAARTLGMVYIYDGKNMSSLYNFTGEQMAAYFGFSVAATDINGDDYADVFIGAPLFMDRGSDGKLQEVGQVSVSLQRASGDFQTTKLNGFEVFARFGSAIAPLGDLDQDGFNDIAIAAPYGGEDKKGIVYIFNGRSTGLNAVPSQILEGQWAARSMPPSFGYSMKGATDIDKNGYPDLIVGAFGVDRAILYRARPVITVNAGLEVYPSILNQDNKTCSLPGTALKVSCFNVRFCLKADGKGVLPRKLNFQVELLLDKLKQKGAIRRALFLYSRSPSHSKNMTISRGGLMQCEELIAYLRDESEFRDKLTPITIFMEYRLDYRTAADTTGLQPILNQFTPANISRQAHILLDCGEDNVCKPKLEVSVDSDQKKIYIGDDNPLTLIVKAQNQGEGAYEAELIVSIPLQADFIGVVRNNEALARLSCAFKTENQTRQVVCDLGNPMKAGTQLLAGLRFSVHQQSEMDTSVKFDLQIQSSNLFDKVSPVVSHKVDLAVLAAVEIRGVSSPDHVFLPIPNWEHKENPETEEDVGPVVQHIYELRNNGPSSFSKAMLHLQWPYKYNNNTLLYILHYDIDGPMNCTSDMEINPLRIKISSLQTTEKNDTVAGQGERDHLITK
T7 sequence (P06756 891-1048 partner limits assumed): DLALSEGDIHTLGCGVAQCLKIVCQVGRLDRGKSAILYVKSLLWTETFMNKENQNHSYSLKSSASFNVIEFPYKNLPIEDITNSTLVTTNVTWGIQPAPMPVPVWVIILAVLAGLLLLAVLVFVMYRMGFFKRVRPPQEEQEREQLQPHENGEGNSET
T7 sequence (P05106 27-788): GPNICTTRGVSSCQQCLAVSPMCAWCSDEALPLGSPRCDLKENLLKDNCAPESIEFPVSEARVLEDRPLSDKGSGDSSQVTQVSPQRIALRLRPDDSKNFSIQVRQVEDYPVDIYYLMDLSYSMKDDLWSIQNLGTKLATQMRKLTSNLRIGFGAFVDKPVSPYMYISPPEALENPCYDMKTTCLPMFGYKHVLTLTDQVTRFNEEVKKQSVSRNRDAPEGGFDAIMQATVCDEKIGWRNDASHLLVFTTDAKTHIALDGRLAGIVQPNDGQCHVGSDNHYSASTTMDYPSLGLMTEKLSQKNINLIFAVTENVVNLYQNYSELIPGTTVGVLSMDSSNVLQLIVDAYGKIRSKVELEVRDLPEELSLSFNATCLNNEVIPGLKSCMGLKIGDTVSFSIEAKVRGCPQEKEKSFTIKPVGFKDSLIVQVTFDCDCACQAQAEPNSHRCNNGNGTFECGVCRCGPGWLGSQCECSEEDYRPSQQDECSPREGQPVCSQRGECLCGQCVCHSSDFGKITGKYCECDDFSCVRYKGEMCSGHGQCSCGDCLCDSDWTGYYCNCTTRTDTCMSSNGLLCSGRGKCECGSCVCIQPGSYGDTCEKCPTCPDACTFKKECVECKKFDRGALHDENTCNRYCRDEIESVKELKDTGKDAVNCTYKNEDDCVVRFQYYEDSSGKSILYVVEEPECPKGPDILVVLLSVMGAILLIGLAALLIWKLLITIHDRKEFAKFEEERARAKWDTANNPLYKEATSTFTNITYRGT
T3 sequence (Q3V3R4 29-1179): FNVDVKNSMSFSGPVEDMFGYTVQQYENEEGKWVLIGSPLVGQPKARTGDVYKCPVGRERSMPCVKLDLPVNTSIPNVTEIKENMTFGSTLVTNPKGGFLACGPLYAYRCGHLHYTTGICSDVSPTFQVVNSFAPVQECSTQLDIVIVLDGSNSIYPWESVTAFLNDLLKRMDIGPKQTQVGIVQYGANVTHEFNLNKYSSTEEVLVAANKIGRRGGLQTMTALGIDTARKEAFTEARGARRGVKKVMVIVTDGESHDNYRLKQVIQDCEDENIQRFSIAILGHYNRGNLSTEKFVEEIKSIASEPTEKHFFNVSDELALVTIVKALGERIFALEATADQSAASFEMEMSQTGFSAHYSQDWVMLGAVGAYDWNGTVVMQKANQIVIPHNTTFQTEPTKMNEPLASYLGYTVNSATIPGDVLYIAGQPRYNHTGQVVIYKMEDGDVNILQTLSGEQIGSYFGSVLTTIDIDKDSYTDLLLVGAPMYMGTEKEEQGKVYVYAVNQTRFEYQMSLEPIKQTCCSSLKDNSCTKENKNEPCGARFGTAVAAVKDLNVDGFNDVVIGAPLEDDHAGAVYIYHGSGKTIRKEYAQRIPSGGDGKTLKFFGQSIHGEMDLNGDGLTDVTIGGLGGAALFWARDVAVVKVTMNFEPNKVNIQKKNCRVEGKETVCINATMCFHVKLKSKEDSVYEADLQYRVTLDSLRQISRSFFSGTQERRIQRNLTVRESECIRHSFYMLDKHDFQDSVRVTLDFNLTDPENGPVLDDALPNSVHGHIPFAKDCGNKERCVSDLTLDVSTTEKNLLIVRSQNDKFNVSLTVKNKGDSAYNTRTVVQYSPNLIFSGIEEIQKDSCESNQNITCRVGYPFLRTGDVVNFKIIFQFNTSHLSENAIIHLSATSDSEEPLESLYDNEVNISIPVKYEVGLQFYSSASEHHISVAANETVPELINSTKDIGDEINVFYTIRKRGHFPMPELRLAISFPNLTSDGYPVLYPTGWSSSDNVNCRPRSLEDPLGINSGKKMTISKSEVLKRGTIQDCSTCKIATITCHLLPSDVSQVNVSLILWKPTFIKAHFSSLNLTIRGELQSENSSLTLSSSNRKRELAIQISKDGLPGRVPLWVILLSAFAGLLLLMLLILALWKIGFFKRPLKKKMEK
T3 sequence (P09055 21-798): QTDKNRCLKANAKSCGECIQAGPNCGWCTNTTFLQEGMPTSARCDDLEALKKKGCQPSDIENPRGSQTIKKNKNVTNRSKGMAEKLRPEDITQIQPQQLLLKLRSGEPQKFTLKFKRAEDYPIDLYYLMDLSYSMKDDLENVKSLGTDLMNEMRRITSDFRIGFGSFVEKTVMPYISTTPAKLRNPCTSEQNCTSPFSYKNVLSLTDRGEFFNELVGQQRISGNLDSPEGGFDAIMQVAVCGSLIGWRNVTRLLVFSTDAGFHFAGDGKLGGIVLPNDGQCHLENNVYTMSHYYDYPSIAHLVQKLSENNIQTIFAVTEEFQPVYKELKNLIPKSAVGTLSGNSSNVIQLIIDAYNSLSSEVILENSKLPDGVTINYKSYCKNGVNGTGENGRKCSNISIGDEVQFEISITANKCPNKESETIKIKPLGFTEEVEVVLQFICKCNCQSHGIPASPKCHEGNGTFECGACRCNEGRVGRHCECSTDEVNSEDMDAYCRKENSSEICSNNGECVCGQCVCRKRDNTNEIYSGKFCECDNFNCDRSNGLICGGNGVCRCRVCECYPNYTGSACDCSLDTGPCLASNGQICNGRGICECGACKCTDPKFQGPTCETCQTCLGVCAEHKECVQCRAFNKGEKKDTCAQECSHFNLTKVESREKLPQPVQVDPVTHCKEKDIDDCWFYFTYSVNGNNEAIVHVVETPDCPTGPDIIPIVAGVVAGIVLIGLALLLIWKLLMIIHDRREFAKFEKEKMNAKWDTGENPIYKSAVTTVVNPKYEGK

| Compound | apoptosis (caspase-3) [1] | apoptosis (caspase-3) [2] | IC50 [3] | IC50 [4] | IC50 [5] | IC50 [6] | IC50 [7] | IC50 [8] | IC50 [9] | IC50 [10] | effect on angiogenesis (fractal dimension) [11] | IC50 [12] | IC50 [13] | inhibition of α1β1 integrin-mediated adhesion of α1K562 cells to collagen IV ([3]; in words) | IC50 [14] | activity relative to obtustatin, mouse α1β1 integrin [7] | inhibition of tumor development (tumor volume) [15] |
| --- | --- | --- | --- | --- | --- | --- | --- | --- | --- | --- | --- | --- | --- | --- | --- | --- | --- |
| TNF-α | induced apoptosis | induced apoptosis |  |  |  |  |  |  |  |  |  |  |  |  |  |  |  |
| Eristostatin: short disintegrin compared with obtustatin (QEEPCATGPCCRRCKFKRAGKVCRVARGDWNDDYCTGKSCDCPKNPWNG) [reference compound] |  |  | > 10 µM | > 10 µM | > 10 µM | > 10 µM | > 10 µM | > 10 µM | > 10 µM | > 10 µM | no affect | > 10 µM | 2 µM |  |  |  |  |
| CKLKPAGTTC (obtustatin fragment) |  |  |  |  |  |  |  |  |  |  |  |  |  | did not appreciably inhibit |  |  |  |
| CC[C@]1(O)C[C@H]2CN(CCc3c([nH]c4ccccc34)[C@@](C(=O)OC)(c3cc4c(cc3OC)N(C=O)[C@H]3[C@@](O)(C(=O)OC)[C@H](OC(C)=O)[C@]5(CC)C=CCN6CC[C@]43[C@@H]65)C2)C1 [vincristine] | induced apoptosis | induced apoptosis |  |  |  |  |  |  |  |  |  |  |  |  |  |  |  |
| Viperisrastatin (CTTGPCCRQCKLKPAGTTCWKTSRTSHYCTGKSCDCPVYQG) |  |  | 8e-05 µM | 2e-06 µM | > 10 µM | 2e-05 µM | 0.00025 µM | > 10 µM | > 10 µM | > 10 µM |  | > 10 µM | > 10 µM |  | > 10 µM | similar |  |
| Echistatin: short RGD-containing disintegrin (QCESGPCCRNCKFLKEGTICKRARGDDMDDYCNGKTCDCPRNPHKGPAT) [reference compound] |  |  | > 10 µM | > 10 µM | > 10 µM | > 10 µM | > 10 µM | > 10 µM | > 10 µM | > 10 µM |  | 0.05 µM | 0.0001 µM |  | 0.05 µM |  | no effect |
